Key:
[1] = target: T1, human LIV-1 (human, UniProt Q13433 29-755); test: FACS, HEK293/H_LIV-1 cells
T1 construct: whole, on cells; also called H-LIV1
T1 sequence (looked up): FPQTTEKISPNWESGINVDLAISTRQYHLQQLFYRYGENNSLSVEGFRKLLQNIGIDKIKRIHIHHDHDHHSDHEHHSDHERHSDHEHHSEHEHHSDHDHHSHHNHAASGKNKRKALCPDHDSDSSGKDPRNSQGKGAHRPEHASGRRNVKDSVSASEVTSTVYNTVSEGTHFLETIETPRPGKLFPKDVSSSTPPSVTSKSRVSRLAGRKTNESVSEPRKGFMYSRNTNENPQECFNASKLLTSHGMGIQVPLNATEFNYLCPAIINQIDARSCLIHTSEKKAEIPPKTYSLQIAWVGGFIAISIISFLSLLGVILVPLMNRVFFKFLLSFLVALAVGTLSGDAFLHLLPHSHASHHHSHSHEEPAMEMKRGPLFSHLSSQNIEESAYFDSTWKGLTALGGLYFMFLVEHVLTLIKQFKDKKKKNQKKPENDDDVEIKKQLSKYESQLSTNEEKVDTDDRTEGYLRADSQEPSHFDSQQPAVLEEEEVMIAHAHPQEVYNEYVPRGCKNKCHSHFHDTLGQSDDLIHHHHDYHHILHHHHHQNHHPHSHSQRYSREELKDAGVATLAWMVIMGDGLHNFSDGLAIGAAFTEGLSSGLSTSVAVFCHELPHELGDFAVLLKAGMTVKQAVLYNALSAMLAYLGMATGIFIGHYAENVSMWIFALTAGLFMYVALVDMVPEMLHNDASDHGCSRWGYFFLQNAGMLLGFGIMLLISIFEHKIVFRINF
Description: (§1) In this example, cell based binding of chimeric Abs on human and cyno LIV-1 over-expressing HEK 293 cells were assessed using flow cytometry.
(§2) Briefly, cells were incubated with chimeric Abs (from 100 nM, 5 folds dilution, 8 points). After incubation at 4° C. for 60 minutes, the cells were washed with 2% FBS/PBS buffer twice, then stained with fluorescent conjugated secondary antibody at 4° C. for 30 minutes. After that the cells were washed twice and resuspended in 80 μL of 2% FBS/PBS buffer. Fluorescent signal of binding was detected using Agilent. The EC50 was calculated using the GraphPad Software (LaJolla, CA).

[2] = target: T1, human LIV-1; test: cell-based or functional assay
[3] = target: T2, cynomolgus LIV-1 (cynomolgus, UniProt A0A2K5WH46 30-741); test: FACS, HEK293/Cyno_LIV-1 cells
Description: as §1, §2

[4] = target: T1, human LIV-1; test: cell-based or functional assay; remark: listed apart in the source
[5] = target: T2, cynomolgus LIV-1; test: FACS, cyno LIV-1 cells
Target sequence in this assay (A0A2K5WH46 entry or part of it): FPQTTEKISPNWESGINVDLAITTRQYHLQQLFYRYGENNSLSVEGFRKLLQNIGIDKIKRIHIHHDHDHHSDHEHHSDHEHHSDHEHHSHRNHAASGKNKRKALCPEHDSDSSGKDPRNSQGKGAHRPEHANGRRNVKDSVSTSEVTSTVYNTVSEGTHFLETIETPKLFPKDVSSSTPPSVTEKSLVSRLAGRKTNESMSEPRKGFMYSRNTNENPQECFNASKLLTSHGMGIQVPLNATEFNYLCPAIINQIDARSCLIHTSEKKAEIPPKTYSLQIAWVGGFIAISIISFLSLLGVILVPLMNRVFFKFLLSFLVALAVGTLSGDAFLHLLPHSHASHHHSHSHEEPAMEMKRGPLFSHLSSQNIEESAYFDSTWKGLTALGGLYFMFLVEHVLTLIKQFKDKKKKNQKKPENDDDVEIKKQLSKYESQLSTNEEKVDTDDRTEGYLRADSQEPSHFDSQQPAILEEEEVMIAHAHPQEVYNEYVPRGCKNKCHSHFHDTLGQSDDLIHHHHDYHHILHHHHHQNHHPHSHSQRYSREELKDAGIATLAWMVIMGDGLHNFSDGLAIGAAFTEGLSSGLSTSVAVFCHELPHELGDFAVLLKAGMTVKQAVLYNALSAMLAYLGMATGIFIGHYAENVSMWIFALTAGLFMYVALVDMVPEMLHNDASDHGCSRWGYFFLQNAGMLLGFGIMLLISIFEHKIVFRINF

[6] = target: T1, human LIV-1; test: FACS, human LIV-1 cells
Description: In this example, cell based binding of humanized antibodies (hu Abs) on human LIV-1-expressing cells were assessed using flow cytometry.
Cell based binding of hu-Abs on human LIV-1 expressing cells were assessed using flow cytometry. Briefly, the HEK293/H_LIV-1 cells were incubated with hu-Abs (from 100 nM, 6 folds dilution, 8 points). After incubation at 4° C. for 60 minutes, the cells were washed with FACS buffer twice, then stained with fluorescent conjugated secondary antibody at 4° C. for 30 minutes. After that the cells were washed twice and analyzed by flow cytometry.

[7] = target: T1, human LIV-1; test: cell-based or functional assay; remark: listed apart in the source

Binder | EC50 [1] [nM] | Top (MFI) [1] [MFI] | EC50 [3] [nM] | Top (MFI) [3] [MFI] | Internalization EC50 [4] [nM] | Internalization Top (RFU) [4] [RFU] | EC50 [5] [nM] | Top (MFI) [5] [MFI] | EC50 [6] [nM] | Top (MFI) [6] [MFI] | ADCC reporter EC50 [7] [nM] | ADCC reporter Top (RFU) [7] [RFU] | Cell viability(%) [2] [%] | Cytotoxicity IC50 [2] [nM]
59C12C8 (antibody, V domains shown, Tested as chimeric antibody) VH: EVQLQQSGAELVRSGASVKLSCTASDFNIEDYYIHWVKQRPEQGLEWIGWIDPENGDTEYAPKFQGKATMTADTSSNTAYLQLSSLTSEDTAVYYCPHGGGFRVFDYWGQGTTLTVSS VL: DVLMTQTPLSLPVSLGDQASISCRSSQRIVHSNGNTYLEWYLQKPGQSPKLLIYKVSNRFSGVPDRFSGSGSGTDFTLKISRVEAEDLGVYYCFQGSHVPWTFGGGTKLEIK | 0.1 | 15100 | 0.11 | 8060 | 3.9 | 408000 |  |  |  |  | 1.1 | 36300 | 20.3 | 0.81
124H4D11 (antibody, V domains shown, Tested as chimeric antibody) VH: EVPLQQSGAELVRSGASVKLSCTASGFNIKDYYMHWVKQRPEQGLEWIGWIDPENGDTEYDPKFQGKATMTADTSSNTADLQLSSLTSEDTAVYYCNARYYAFDYWGQGTTLTVSS VL: DVLMTQTPLSLPVSLGDQASISCRSSQSIVHSNGNTYLEWYLQKPGQSPKLLIYKVSNRFSGVPDRFSGSGSGTEFTLKISRVEAEDLGVYYCFQGSQVPPTFGGGTRLEIK | 0.23 | 7980 | 0.2 | 3370 | 4.3 | 474000 |  |  |  |  | 2.1 | 81900 | 15.4 | 0.57
112H11C12 (antibody, V domains shown, Tested as chimeric antibody; also called 112H1C12) VH: QVQLQQPGAELVRPGASVKLSCKASGYTFTSYWMNWVKQRPGQGLKWIGMIDPSNSKTHYNQMFKDKATLTVDKSSNTAYMQLSSLTSEDSAVYYCARTSTTMATFAYWGQGTLVSVSA VL: DVLMTQTPLSLPVSLGDQASISCRSSQSIVHSNGNTYLEWYLQKPGQSPKLLIYKVSNRFSGVPDRFSGSGSGTDFTLKISRVEAEDLGVYYCFQASHFPLTFGAGTELDLN | 20.7 | 8800 | 12 | 2930 | 13.2 | 643000 |  |  |  |  | 20.5 | 74700 | 18 | 2.08
109C9D4 (antibody, V domains shown, Tested as chimeric antibody) VH: EVKLVESGGGLVQPGGSRKLSCAASGFTFSDYGMAWVRQAPGKGPEWVTFISNLAYSIYYADTVTGRFTISRENAKNTLYLEMSSLRSEDTAMYYCARVEENGNYFDYWGQGTTLTVSS VL: DIQMTQTTSSLSASLGDRVTIRCRASQDIGIYLHWYQQKPDGTVKLLIYYTSRLHSGVPSRFSGSRSGTDYSLTIGNLEQEDIATYFCLQGNTIPPTFGGGTKLEIK | 0.43 | 7340 | 1.33 | 2340 | 4.2 | 554000 |  |  |  |  | 4.1 | 101000 | 18.5 | 0.69
47G1B10 (antibody, V domains shown, Tested as chimeric antibody) VH: QVQLKQSGPGLVQPSQSLSITCTVSGFSLTTYGVHWVRQSPGKGLEWLGVIWTGGTTDYNAAFISRLSISKDNSKSQVFFKMNSLQANDTAIYYCARGPSSYWGQGTLVTVSA VL: DIVMTQSQKFMSTSVGDRVSVTCKASQNVDTNVVWYQQKPGQSPKALIHSASYRYSGVPDRFTGSGSGTDFTLTISNVQSEDLAEYFCQQYNNYPWTFGGGTKLEIK | 0.37 | 60900 | 0.3 | 36700 | 10.1 | 178000 |  |  |  |  | 0.3 | 191000 | 17.7 | 1.53
39D10B2 (antibody, V domains shown, Tested as chimeric antibody) VH: QVQLKQSGPGLVQPSQSLSITCTVSGFSLTTYGVHWVRQSPGKGLEWLGVIWTGGTTDYNAAFISRLSISKDNSKSQVFFKMNSLQANDTAMYYCARGPSSYWGQGTLVTVSA VL: DIVMTQSQKFMSTSVGDRVSVTCKASQNVDTNVVWYQQKPGQSPKALIHSASYRYSGVPDRFTGSGSGTDFTLTISNVQSEDLAEYFCQQYNNYPWTFGGGTKLEIK | 0.24 | 61800 | 0.21 | 37300 | 16.9 | 171000 |  |  |  |  | 0.2 | 151000 | 16.2 | 1.54

Further lines, with some results ahead:

EC50 [1] [nM] | Top (MFI) [1] [MFI] | EC50 [3] [nM] | Top (MFI) [3] [MFI] | Internalization EC50 [4] [nM] | Internalization Top (RFU) [4] [RFU] | EC50 [5] [nM] | Top (MFI) [5] [MFI] | EC50 [6] [nM] | Top (MFI) [6] [MFI] | ADCC reporter EC50 [7] [nM] | ADCC reporter Top (RFU) [7] [RFU] | Binder | Cell viability(%) [2] [%] | Cytotoxicity IC50 [2] [nM]
4.03 | 34600 | 3.92 | 21700 | 51.8 | 558000 |  |  |  |  |  |  | 127A2B9 (antibody, V domains shown, Tested as chimeric antibody) VH: EVQLQESGPSLVKPSQTLSLTCSVTGDSITSGYWNWIRKLPGNKLEYMGYISYSGSTYYNPSLKSRISITRDTSKNQYYLQLNSVTTEDTATYYCARIYYDYDGYFDVWGAGTTVTVSS VL: DIVMTQAAPSVPVTPGESVSISCRSSKSLLHSNGNTFLYWFLQRPGQSPQLLIYRMSNLASGVPDRFSGSGSGTAFTLRISRVEAEDVGVYYCMQHLEYPYTFGGGTKLEIK | 17.8 | 2.25
 |  |  |  |  |  | 0.48 | 7220 | 0.3 | 7410 |  |  | 290F10G10.p1.Z14 (antibody, V domains shown) VH: EVQLVQSGAEVKKPGASVKVSCKASGYTFTSYWIHWVRQAPGQGLEWIGTIYPGDADTRSTQKFKDKATVTADKSTSTVYMELSSLRSEDTAVYYCTRSLIHDDYDKYYFDYWGQGTTVTVSS VL: DIQMTQSPSSLSASVGDRVTITCKARQDINKYIAWYQQKPGKAPKLLIHYTSILQPGIPSRFSGSGSGRDYTFTISSLQPEDIATYYCLQYDYFFTFGGGTKVEIK |  | 
 |  |  |  |  |  | 0.36 | 7210 | 0.27 | 7550 |  |  | 290F10G10.p1.Z15 (antibody, V domains shown) VH: EVQLVQSGAEVKKPGASVKVSCKASGYTFTSYWIHWVRQAPGQGLEWIGTIYPGDADTRSTQKFKDKATVTADKSTSTVYMELSSLRSEDTAVYYCTRSLIHDDYDKYYFDYWGQGTTVTVSS VL: DIQMTQSPSSLSASVGDRVTITCKARQDINKYIAWYQHKPGKGPKLLIHYTSILQPGIPSRFSGSGSGRDYTFTISSLQPEDIATYYCLQYDYFFTFGGGTKVEIK |  | 
 |  |  |  |  |  | 0.61 | 6920 | 0.43 | 7440 |  |  | 290F10G10.p1.Z16 (antibody, V domains shown) VH: EIQLVQSGAEVKKPGASVKVSCKASGYTFTSYWIHWVREAPGQGLEWIGTIYPGDADTRSTQKFKDKATVTADKSTSTVYMELSSLRSEDTAVYYCTRSLIHDDYDKYYFDYWGQGTTVTVSS VL: DIQMTQSPSSLSASVGDRVTITCKARQDINKYIAWYQQKPGKAPKLLIYYTSILQPGVPSRFSGSGSGRDYTFTISSLQPEDIATYYCLQYDYFFTFGGGTKVEIK |  | 
 |  |  |  |  |  | 0.51 | 6820 | 0.39 | 7520 |  |  | 290F10G10.p1.Z17 (antibody, V domains shown) VH: EIQLVQSGAEVKKPGASVKVSCKASGYTFTSYWIHWVREAPGQGLEWIGTIYPGDADTRSTQKFKDKATVTADKSTSTVYMELSSLRSEDTAVYYCTRSLIHDDYDKYYFDYWGQGTTVTVSS VL: DIQMTQSPSSLSASVGDRVTITCKARQDINKYIAWYQQKPGKAPKLLIHYTSILQPGIPSRFSGSGSGRDYTFTISSLQPEDIATYYCLQYDYFFTFGGGTKVEIK |  | 
 |  |  |  |  |  | 0.56 | 7040 | 0.36 | 7430 |  |  | 290F10G10.p1.Z18 (antibody, V domains shown) VH: EIQLVQSGAEVKKPGASVKVSCKASGYTFTSYWIHWVREAPGQGLEWIGTIYPGDADTRSTQKFKDKATVTADKSTSTVYMELSSLRSEDTAVYYCTRSLIHDDYDKYYFDYWGQGTTVTVSS VL: DIQMTQSPSSLSASVGDRVTITCKARQDINKYIAWYQHKPGKGPKLLIHYTSILQPGIPSRFSGSGSGRDYTFTISSLQPEDIATYYCLQYDYFFTFGGGTKVEIK |  | 
